Source: US20190302117

T1: Peptide 11: DEAIYATVAGGKKK (version of peptide 5 used for the kinetic experiments)
T1 chain: DEAIYATVAGGKKK

T2: Peptide 10: EDPIYVTLEGGKKK (version of peptide 2 used for the kinetic experiments)
T2 chain: EDPIYVTLEGGKKK


Tests used:
[1] = target: T1, Peptide 11: DEAIYATVAGGKKK (version of …)
[2] = target: T2, Peptide 10: EDPIYVTLEGGKKK (version of …)

| Protein | Km [1] [µM] | kcat [1] [s⁻¹] | kcat/Km [1] [M⁻¹ s⁻¹] | 2/5 kcat/Km ratio (peptide 2 against peptide 5) [2] | Km [2] [µM] | kcat [2] [s⁻¹] | kcat/Km [2] [M⁻¹ s⁻¹] |
| --- | --- | --- | --- | --- | --- | --- | --- |
| BTK as GST fusion protein (protein) MAAVILESIFLKRSQQKKKTSPLNFKKRLFLLTVHKLSYYEYDFERGRRGSKKGSIDVEKITCVETVVPEKNPPPERQIPRRGEESSEMEQISIIERFPYPFQVVYDEGPLYVFSPTEELRKRWIHQLKNVIRYNSDLVQKYHPCFWIDGQYLCCSQTAKNAMGCQILENRNGSLKPGSSHRKTKKPLPPTPEEDQILKKPLPPEPAAAPVSTSELKKVVALYDYMPMNANDLQLRKGDEYFILEESNLPWWRARDKNGQEGYIPSNYVTEAEDSIEMYEWYSKHMTRSQAEQLLKQEGKEGGFIVRDSSKAGKYTVSVFAKSTGDPQGVIRHYVVCSTPQSQYYLAEKHLFSTIPELINYHQHNSAGLISRLKYPVSQQNKNAPSTAGLGYGSWEIDPKDLTFLKELGTGQFGVVKYGKWRGQYDVAIKMIKEGSMSEDEFIEEAKVMMNLSHEKLVQLYGVCTKQRPIFIITEYMANGCLLNYLREMRHRFQTQQLLEMCKDVCEAMEYLESKQFLHRDLAARNCLVNDQGVVKVSDFGLSRYVLDDEYTSSVGSKFPVRWSPPEVLMYSKFSSKSDIWAFGVLMWEIYSLGKMPYERFTNSETAEHIAQGLRLYRPHLASEKVYTIMYSCWHEKADERPTFKILLSNILDVMDEES | 84 | 0.26 | 3170 | 0.31 | 64 | 0.061 | 970 |
| His6-ALK 1090-1416 (protein) HHHHHHTDYNPNYCFAGKTSSISDLKEVPRKNITLIRGLGHGAFGEVYEGQVSGMPNDPSPLQVAVKTLPEVCSEQDELDFLMEALIISKFNHQNIVRCIGVSLQSLPRFILLELMAGGDLKSFLRETRPRPSQPSSLAMLDLLHVARDIACGCQYLEENHFIHRDIAARNCLLTCPGPGRVAKIGDFGMARDIYRASYYRKGGCAMLPVKWMPPEAFMEGIFTSKTDTWSFGVLLWEIFSLGYMPYPSKSNQEVLEFVTSGGRMDPPKNCPGPVYRIMTQCWQHQPEDRPNFAIILERIEYCTQDPDVINTALPIEYGPLVEEEEKVPVRPK | > 200 | > 0.02 | 79 | 1.23 | > 200 | > 0.02 | 95 |
| GST-FLT3 564-993 (intracellular portion of human FLT3 fused to GST) (protein) HKYKKQFRYESQLQMVQVTGSSDNEYFYVDFREYEYDLKWEFPRENLEFGKVLGSGAFGKVMNATAYGISKTGVSIQVAVKMLKEKADSSEREALMSELKMMTQLGSHENIVNLLGACTLSGPIYLIFEYCCYGDLLNYLRSKREKFHRTWTEIFKEHNFSFYPTFQSHPNSSMPGSREVQIHPDSDQISGLHGNSFHSEDEIEYENQKRLEEEEDLNVLTFEDLLCFAYQVAKGMEFLEFKSCVHRDLAARNVLVTHGKVVKICDFGLARDIMSDSNYVVRGNARLPVKWMAPESLFEGIYTIKSDVWSYGILLWEIFSLGVNPYPGIPVDANFYKLIQNGFKMDQPFYATEEIYIIMQSCWAFDSRKRPSFPNLTSFLGCQLADAEEAMYQNVDGRVSECPHTYQNRRPFSREMDLGLLSPQAQVEDS |  |  |  |  | 41 | 0.013 | 304 |
